Measurements published in patent publication US20240352438A1, “MEANS AND METHODS FOR DETOXIFYING OCHRATOXIN A” (DSM Austria GmbH, priority 2021, published 2024).
Residue numbers refer to the chain shown, from its start.

B1: 144 (protein)
chain: MTTRTRILTAFLSLLAANACAADAAPAAPHTVVLRAARMFDGASGKLVDHPQLTIVGNKIVRIAQGDKAEVPAGAEVVDLGDATLLPGFIDAHVHLSGQSSDNWYGDFFDNMMRFPAEQALYGAYYARITLEAGFTSVRDVGSEDWVALGLRNAIDAGKVPGPRMLVSNYAVGSTGGHADQDPIPPHKLPLAGPLQGVCNGPEECRAAVRYQIKYGANVIKFMPSGGVLSLSDPVDAPELSQDEMNAVIGESHAWGRKVAAHAHGDKAAKMAVAAGVDSIEHGSFIEDDTLRAMKAKNVYLVPTISAIAHVEEKIGTFPPVIAEKGRAAAAHLRQTFRHAVQIGVPIALGTDAGVGAHGSNAREFRYMVENGLTPAQALLAGTANAARLLGTFDRVGTLEAGKLADVVAVPGNPIADITVTERPLFVMKDGVVVRRDAVR
modifications: exemplary polypeptide
B2: 146 (protein)
chain: B1 chain with E144R
modifications: exemplary polypeptide
B3: 158 (protein)
chain: B1 chain with E144T, I184V, G354A
modifications: exemplary polypeptide
B4: 154 (protein)
chain: B1 chain with E144T, A171P, G354A
modifications: exemplary polypeptide
B5: 148 (protein)
chain: B1 chain with E144T, A179S
modifications: exemplary polypeptide
B6: 145 (protein)
chain: B1 chain with E144P
modifications: exemplary polypeptide
B7: 159 (protein)
chain: B1 chain with E144T, I308A, F318Y
modifications: exemplary polypeptide
B8: 157 (protein)
chain: B1 chain with E144T, I184V, F318Y
modifications: exemplary polypeptide
B9: 152 (protein)
chain: B1 chain with E144T, A171P, I308V
modifications: exemplary polypeptide
B10: 156 (protein)
chain: B1 chain with E144T, I184V, I308V
modifications: exemplary polypeptide
B11: 150 (protein)
chain: B1 chain with E144T, A171P, I184V
modifications: exemplary polypeptide
B12: 153 (protein)
chain: B1 chain with E144T, A171P, F318Y
modifications: exemplary polypeptide
B13: 155 (protein)
chain: B1 chain with E144T, I184V, I308A
modifications: exemplary polypeptide
B14: 151 (protein)
chain: B1 chain with E144T, A171P, I308A
modifications: exemplary polypeptide

assay: Enzymatic activity comparison: activity remaining after 65° C. for 10 min at pH 6.0, relative to SEQ ID NO: 1; format: physicochemical; conditions: not given
Protocol: To compare the temperature behavior and thermostability of selected enzymes to one another, enzyme was incubated at 65° C. for 10 min at pH 6.0. The enzymatic activity remaining after incubation was compared to the remaining activity of the enzyme of SEQ ID NO: 1 after incubation, the latter being set to 100%, see Table 16.

Row | Molecule | Enzymatic activity remaining after incubation, compared to SEQ ID NO: 1 (set to 100%)
1 | B1 | 28%
2 | B2 | 45%
3 | B3 | 9%
4 | B4 | 32%
5 | B5 | 35%
6 | B6 | 47%
7 | B7 | 30%
8 | B8 | 73%
9 | B9 | 38%
10 | B10 | 34%
11 | B11 | 22%
12 | B12 | 34%
13 | B13 | 35%
14 | B14 | 30%

assay: OTA detoxification activity assay (specific activity, fluorescence reduction ex/em 390/450 nm); format: biochemical; conditions: pH 6.0; SEQ ID NO: 1 = 100%
Method in brief: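 Recombinant enzyme preparation with 200 ng/mL OTA in 100 mM sodium phosphate, at pH 6.0 and pH 7.5, 37° C. Degradation followed as the fall in fluorescence at ex/em 390/450 nm. Specific activity taken from the initial linear slope; one unit degrades 1 μmol OTA per min at a starting OTA of […].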

Row | Molecule | Specific OTA detoxification activities in % compared to the enzyme of SEQ ID NO: 1, pH 6.0
15 | B1 | 78%
16 | B2 | 172%
17 | B3 | 157%
18 | B4 | 38%
19 | B5 | 40%
20 | B6 | 101%
21 | B7 | 84%
22 | B8 | 78%
23 | B9 | 65%
24 | B10 | 144%
25 | B11 | 89%
26 | B12 | 72%
27 | B13 | 116%
28 | B14 | 75%

same assay, conditions: pH 7.5; SEQ ID NO: 1 = 100%

Row | Molecule | Specific OTA detoxification activities in % compared to the enzyme of SEQ ID NO: 1, pH 7.5
29 | B1 | 95%
30 | B2 | 112%
31 | B3 | 92%
32 | B4 | 38%
33 | B5 | 19%
34 | B6 | 90%
35 | B7 | 93%
36 | B8 | 63%
37 | B9 | 74%
38 | B10 | 109%
39 | B11 | 62%
40 | B12 | 77%
41 | B13 | 124%
42 | B14 | 86%
